This is an account of results in paper PMC6005164, “A novel thymidylate synthase from the Vibrionales, Alteromonadales, Aeromonadales, and Pasteurellales (VAAP) clade with altered nucleotide and folate binding sites” (PeerJ, 2018).

Series [1] deals with T1, VpTS (Vibrio parahaemolyticus, UniProt Q87SA0).
T1 construct: gene thyA; full-length from codon-optimized synthetic gene in pJexpress414; E. coli BL21(DE3)-SI; 35,944 Da with tag; homodimer 70 kDa
T1 sequence (Q87SA0 1-283): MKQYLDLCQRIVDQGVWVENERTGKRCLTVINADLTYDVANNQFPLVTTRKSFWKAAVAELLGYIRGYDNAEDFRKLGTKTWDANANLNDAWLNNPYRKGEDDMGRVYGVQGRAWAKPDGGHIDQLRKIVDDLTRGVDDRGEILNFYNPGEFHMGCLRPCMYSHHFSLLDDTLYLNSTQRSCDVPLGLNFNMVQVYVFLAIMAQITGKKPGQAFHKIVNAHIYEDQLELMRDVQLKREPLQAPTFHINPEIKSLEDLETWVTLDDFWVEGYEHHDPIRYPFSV
Briefly: spectrophotometric dihydrofolate formation at […] nm, dose-response fit. In kind it is biochemical.

Substrate in series [2]: Nc1nc2c(c(=O)[nH]1)N1CN(c3ccc(C(=O)N[C@@H](CCC(=O)O)C(=O)O)cc3)C[C@H]1CN2
Briefly: purified protein. As to conditions: co-substrate dUMP, mTHF 0–300 µM, 50 mM Tris-HCl pH 7.5, 25 mM MgCl2, 5 mM DTT, 1 mM EDTA, 30 °C, varied: cofactor. The class given is biochemical, Vibrio parahaemolyticus.

Substrate in series [3]: O=c1ccn([C@H]2C[C@H](O)[C@@H](COP(=O)(O)O)O2)c(=O)[nH]1
The series is described as follows: purified protein. In kind it is biochemical, Vibrio parahaemolyticus. The conditions noted are these: co-substrate mTHF, dUMP 0–150 µM, 50 mM Tris-HCl pH 7.5, 25 mM MgCl2, 5 mM DTT, 1 mM EDTA, 30 °C.

Series [4] deals with the molecule itself. Briefly: SEC; Superdex 75 10/300, 1 mL/min, Tris HCl 20 mM pH 7.5, NaCl 100 mM; native molecular weight from a Kav vs. log MW plot of standards. For orientation: In gel filtration, larger molecules generally elute earlier.

For the molecule `COc1cc(Cc2cnc(N)nc2N)cc(OC)c1OC` [trimethoprim], the IC50 (as a rule, the midpoint of a concentration-inhibition curve) in series [1] was 106 ± 11.4 µM.

B1: VpTS (Vibrio parahaemolyticus RIMD 2210633) (protein)
chain: T1 sequence (Q87SA0 1-283)
notes: full-length from codon-optimized synthetic gene in pJexpress414; E. coli BL21(DE3)-SI; 35,944 Da with tag; homodimer 70 kDa
Consider B1, for which, in series [2], the Michaelis constant (Km) (in general, the substrate concentration at which the rate is half of its maximum) was found to be 96.3 ± 18 µM; the kcat (as a rule, the number of substrate molecules converted per active site and unit of time at saturation) is 0.3 s⁻¹. Also, in series [3], the Km is 27.3 ± 4.3 µM and the catalytic constant (kcat) was determined as 0.3 s⁻¹.

B2: recombinant thymidylate synthase from Vibrio parahaemolyticus FIM-S1708+ (enzyme, UniProt Q87SA0 1-283, looked up)
chain: T1 sequence (Q87SA0 1-283)
notes: thymidylate synthase (folate-dependent, thyA) of Vibrio parahaemolyticus strain FIM-S1708+, GenBank WP_100088861.1; codon-optimized synthetic gene in pJexpress414; theoretical mass with tag 35,944 Da; the 35 kDa band is compared with the mass that includes the 10-His tag, so the tag was probably still on the protein in the size exclusion run; also called VpTS; TS
On to B2, for which the stoichiometry N (commonly the number of molecules, sites or subunits per partner or assembly) in series [4] is 2.
